Results from patent publication US20120237496.
Changes are numbered by the printed parent chain.

T1: Peptide-13 (not fully specified)
T1 chain: CRPPGFSPFRK

T2: Peptide-3
T2 chain: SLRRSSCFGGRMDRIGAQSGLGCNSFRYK

T3: Peptide-5 (not fully specified)
T3 chain: CDRVYIHPFHLK

T4: Peptide-6a
T4 chain: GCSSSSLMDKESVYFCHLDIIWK

T5: Peptide-6b
T5 chain: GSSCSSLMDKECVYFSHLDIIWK

T6: Peptide-8 (not fully specified)
T6 chain: CQLYENKPRRPYILK

B1: C10 (protein)
chain: YPYDVPDYAYPYDVPDYAYPYDVPDYAGSYDDGICKSSDCIKSAARLIQNMDATTEPCTDFFKYACGGWLKRNVIPETSSRYGNFDILRDELEVVLKDVLQEPKTEDIVAVQKAKALYRSCINESAIDSRGGEPLLKLLPDIYGWPVATENWEQKYGASWTAEKAIAQLNSKYGKKVLINLFVGTDDKNSVNHVIHIDQPRLGLPRRDYYECTGIYKEACTAYVDLMISVARLIRQEERLPIDENQLALEMNKVMELEKEIANATAKPEDRNDPMLLYNKMTLAQIQNNFSLEINGKPFSWLNFTNEIMSTVNISITNEEDVVVYAPEYLTKLKPILTKYSARDLQNLMSWRFIMDLVSSLSRTYKESRNAFRKALYVTTSETATWRRCANYVNGNMMNAVGRLYVEAAFAGESKHVVEDLIAQIREVFIQTLDDLTWMDAETKKRAEEKALAIKERIGYPDDIVSNDNKLNNEYLELNYKEDEYFENIIQNLKFSQSKQLKKLREKVDKDEWISGAAVVNAFYSSGRNQIVFPAGILQPPFFSAQQSNSLNYGGIGMVIGHEITHGFMDNVRNPNKDDDLVDWWTQQSASNFKEQSQCMVYQYGNFSWDLAGGQHLNGINTLGENIADNGGLGQAYRAYQNYIKKNGEEKLLPGLDLNHKQLFFLNFAQVWCGTYRPEYAVNSIKTDVHSPKNFRIIGTLQNSAEFSEAFHCRKNSYMNPEKKCRVW
B2: C12 (protein)
chain: B1 chain with M398E, V572G, P575F, D579V
B3: C13 (protein)
chain: B1 chain with R206S, R207G, V572G, P575F, D579V
B4: C11 (protein)
chain: B1 chain with V572G, D579W
B5: C14 (protein)
chain: B1 chain with R206S, R207G, V572G, P575F

Each protein was assayed against Peptide-1.

Question: With B1 as the protein, how does the activity relative to G399V/G714K (B1) read?
Answer: The activity relative to G399V/G714K (B1) was 2.05 fold.

Question: What about the kapp ratio vs G399V/G714K (B1) of the same protein?
Answer: The kapp ratio vs G399V/G714K (B1) was 2.35 fold.

Question: With B2 as the protein, how does the kapp ratio vs G399V/G714K (B1) read?
Answer: Its kapp ratio vs G399V/G714K (B1) is 2.11 fold.

Question: B3 was tested. Which kapp ratio vs G399V/G714K (B1) did it give?
Answer: Its kapp ratio vs G399V/G714K (B1) is 1.78 fold.

Question: B4 was tested. Which kapp ratio vs G399V/G714K (B1) did it give?
Answer: Its kapp ratio vs G399V/G714K (B1) is 2.19 fold.

Question: With B5 as the protein, how does the kapp ratio vs G399V/G714K (B1) read?
Answer: Its kapp ratio vs G399V/G714K (B1) is 1.98 fold.

Target: T1, Peptide-13

Question: Which kapp ratio vs G399V/G714K (B1) does the source give for B1 here?
Answer: Its kapp ratio vs G399V/G714K (B1) is 0.68 fold.

Question: Which kapp ratio vs G399V/G714K (B1) does the source give for B2 here?
Answer: Its kapp ratio vs G399V/G714K (B1) is 0.83 fold.

Question: Which kapp ratio vs G399V/G714K (B1) does the source give for B3 here?
Answer: Its kapp ratio vs G399V/G714K (B1) is 0.39 fold.

Question: With B4 as the protein, how does the kapp ratio vs G399V/G714K (B1) read?
Answer: Its kapp ratio vs G399V/G714K (B1) is 0.61 fold.

Question: B5 was tested. Which kapp ratio vs G399V/G714K (B1) did it give?
Answer: Its kapp ratio vs G399V/G714K (B1) is 0.71 fold.

What follows are proteins tested against Peptide-2.

Question: How did the activity relative to G399V/G714K (B1) turn out when B1 was run?
Answer: Its activity relative to G399V/G714K (B1) is 2.39 fold.

Question: And the kapp ratio vs G399V/G714K (B1)?
Answer: Its kapp ratio vs G399V/G714K (B1) is 2.6 fold.

Question: With B2 as the protein, how does the kapp ratio vs G399V/G714K (B1) read?
Answer: Its kapp ratio vs G399V/G714K (B1) is 2.04 fold.

Question: With B3 as the protein, how does the kapp ratio vs G399V/G714K (B1) read?
Answer: The kapp ratio vs G399V/G714K (B1) was 1.56 fold.

Question: Which kapp ratio vs G399V/G714K (B1) does the source give for B4 here?
Answer: Its kapp ratio vs G399V/G714K (B1) is 2.14 fold.

Question: Which kapp ratio vs G399V/G714K (B1) does the source give for B5 here?
Answer: The kapp ratio vs G399V/G714K (B1) was 2.01 fold.

Target: T2, Peptide-3

Question: How did the kapp ratio vs G399V/G714K (B1) turn out when B1 was run?
Answer: The kapp ratio vs G399V/G714K (B1) was 0.24 fold.

Question: Which kapp ratio vs G399V/G714K (B1) does the source give for B2 here?
Answer: The kapp ratio vs G399V/G714K (B1) was 0.24 fold.

Question: How did the kapp ratio vs G399V/G714K (B1) turn out when B3 was run?
Answer: Its kapp ratio vs G399V/G714K (B1) is 0.24 fold.

Question: With B4 as the protein, how does the kapp ratio vs G399V/G714K (B1) read?
Answer: The kapp ratio vs G399V/G714K (B1) was 0.24 fold.

Question: How did the kapp ratio vs G399V/G714K (B1) turn out when B5 was run?
Answer: Its kapp ratio vs G399V/G714K (B1) is 0.24 fold.

What follows are proteins tested against Peptide-4.

Question: For B1, which activity relative to G399V/G714K (B1) is on record?
Answer: Its activity relative to G399V/G714K (B1) is 0.83 fold.

Question: And the kapp ratio vs G399V/G714K (B1)?
Answer: The kapp ratio vs G399V/G714K (B1) was 0.8 fold.

Question: How did the kapp ratio vs G399V/G714K (B1) turn out when B2 was run?
Answer: Its kapp ratio vs G399V/G714K (B1) is 0.79 fold.

Question: With B3 as the protein, how does the kapp ratio vs G399V/G714K (B1) read?
Answer: Its kapp ratio vs G399V/G714K (B1) is 0.91 fold.

Question: How did the kapp ratio vs G399V/G714K (B1) turn out when B4 was run?
Answer: The kapp ratio vs G399V/G714K (B1) was 0.49 fold.

Question: Which kapp ratio vs G399V/G714K (B1) does the source give for B5 here?
Answer: Its kapp ratio vs G399V/G714K (B1) is 0.72 fold.

Target: T3, Peptide-5

Question: Which activity relative to G399V/G714K (B1) does the source give for B1 here?
Answer: Its activity relative to G399V/G714K (B1) is 0.08 fold.

Question: And the kapp ratio vs G399V/G714K (B1)?
Answer: The kapp ratio vs G399V/G714K (B1) was 0.17 fold.

Question: How did the kapp ratio vs G399V/G714K (B1) turn out when B2 was run?
Answer: The kapp ratio vs G399V/G714K (B1) was 0.26 fold.

Question: Which kapp ratio vs G399V/G714K (B1) does the source give for B3 here?
Answer: Its kapp ratio vs G399V/G714K (B1) is 0.18 fold.

Question: For B4, which kapp ratio vs G399V/G714K (B1) is on record?
Answer: Its kapp ratio vs G399V/G714K (B1) is 0.19 fold.

Question: With B5 as the protein, how does the kapp ratio vs G399V/G714K (B1) read?
Answer: The kapp ratio vs G399V/G714K (B1) was 0.2 fold.

Target: T4, Peptide-6a

Question: For B1, which activity relative to G399V/G714K (B1) is on record?
Answer: Its activity relative to G399V/G714K (B1) is 0.28 fold.

Question: And the kapp ratio vs G399V/G714K (B1)?
Answer: The kapp ratio vs G399V/G714K (B1) was 0.27 fold.

Question: B2 was tested. Which kapp ratio vs G399V/G714K (B1) did it give?
Answer: The kapp ratio vs G399V/G714K (B1) was 0.32 fold.

Question: For B3, which kapp ratio vs G399V/G714K (B1) is on record?
Answer: Its kapp ratio vs G399V/G714K (B1) is 0.3 fold.

Question: For B4, which kapp ratio vs G399V/G714K (B1) is on record?
Answer: Its kapp ratio vs G399V/G714K (B1) is 0.28 fold.

Question: For B5, which kapp ratio vs G399V/G714K (B1) is on record?
Answer: Its kapp ratio vs G399V/G714K (B1) is 0.3 fold.

Target: T5, Peptide-6b

Question: For B1, which kapp ratio vs G399V/G714K (B1) is on record?
Answer: Its kapp ratio vs G399V/G714K (B1) is 0.19 fold.

Question: B2 was tested. Which kapp ratio vs G399V/G714K (B1) did it give?
Answer: Its kapp ratio vs G399V/G714K (B1) is 0.18 fold.

Question: How did the kapp ratio vs G399V/G714K (B1) turn out when B3 was run?
Answer: The kapp ratio vs G399V/G714K (B1) was 0.18 fold.

Question: With B4 as the protein, how does the kapp ratio vs G399V/G714K (B1) read?
Answer: Its kapp ratio vs G399V/G714K (B1) is 0.11 fold.

Question: B5 was tested. Which kapp ratio vs G399V/G714K (B1) did it give?
Answer: Its kapp ratio vs G399V/G714K (B1) is 0.24 fold.

Each protein was assayed against Peptide-7.

Question: B1 was tested. Which activity relative to G399V/G714K (B1) did it give?
Answer: The activity relative to G399V/G714K (B1) was 0.68 fold.

Question: And the kapp ratio vs G399V/G714K (B1)?
Answer: Its kapp ratio vs G399V/G714K (B1) is 0.49 fold.

Question: With B2 as the protein, how does the kapp ratio vs G399V/G714K (B1) read?
Answer: The kapp ratio vs G399V/G714K (B1) was 0.84 fold.

Question: With B3 as the protein, how does the kapp ratio vs G399V/G714K (B1) read?
Answer: The kapp ratio vs G399V/G714K (B1) was 0.36 fold.

Question: B4 was tested. Which kapp ratio vs G399V/G714K (B1) did it give?
Answer: The kapp ratio vs G399V/G714K (B1) was 0.66 fold.

Question: How did the kapp ratio vs G399V/G714K (B1) turn out when B5 was run?
Answer: Its kapp ratio vs G399V/G714K (B1) is 0.59 fold.

Target: T6, Peptide-8

Question: With B1 as the protein, how does the kapp ratio vs G399V/G714K (B1) read?
Answer: The kapp ratio vs G399V/G714K (B1) was 0.34 fold.

Question: With B2 as the protein, how does the kapp ratio vs G399V/G714K (B1) read?
Answer: The kapp ratio vs G399V/G714K (B1) was 0.43 fold.

Question: Which kapp ratio vs G399V/G714K (B1) does the source give for B3 here?
Answer: The kapp ratio vs G399V/G714K (B1) was 0.35 fold.

Question: With B4 as the protein, how does the kapp ratio vs G399V/G714K (B1) read?
Answer: The kapp ratio vs G399V/G714K (B1) was 0.35 fold.

Question: How did the kapp ratio vs G399V/G714K (B1) turn out when B5 was run?
Answer: Its kapp ratio vs G399V/G714K (B1) is 0.43 fold.
